Laboratory results as given in article PMC6698835 (Antibodies, 2018).

Experiments:
Details in all cases: both partners purified
Shiga toxin 1 (Stx1) [1] = biological target: T1, Shiga toxin 1 (Stx1) (Escherichia coli (STEC), strain not …, UniProt P08026;P69179); assay: SPR; […]; HBS-EP pH 7.4; 25 °C; 30 uL/min; […]; Langmuir 1:1 model; BIAcore T200; in duplicate
T1 construct: source: bought: Tufts University School of Medicine; copies: 1 + 5

Shiga toxin 1 (Stx1) [2] = biological target: T1, Shiga toxin 1 (Stx1); assay: ELISA; […]; room temperature; in triplicate
Stx2 toxin = Stx2 toxin (Escherichia coli (STEC), strain not …, UniProt P09385;P09386); assay: ELISA; […]; room temperature; in triplicate
Chain of Stx2 toxin (P09386 whole entry, looked up, chain 1 of 2): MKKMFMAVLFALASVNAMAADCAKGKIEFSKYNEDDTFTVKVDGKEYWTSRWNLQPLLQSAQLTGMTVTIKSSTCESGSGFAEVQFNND
Chain of Stx2 toxin (P09385 whole entry, looked up, chain 2 of 2): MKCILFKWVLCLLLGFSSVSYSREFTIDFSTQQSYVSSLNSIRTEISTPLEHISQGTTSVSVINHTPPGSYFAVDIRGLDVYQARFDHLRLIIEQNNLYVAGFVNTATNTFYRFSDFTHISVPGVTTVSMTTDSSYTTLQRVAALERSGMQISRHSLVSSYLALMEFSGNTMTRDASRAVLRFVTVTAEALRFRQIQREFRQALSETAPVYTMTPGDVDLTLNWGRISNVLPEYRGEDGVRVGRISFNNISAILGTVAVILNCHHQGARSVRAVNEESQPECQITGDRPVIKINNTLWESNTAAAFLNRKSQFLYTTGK

T1 sequence (P69179 whole entry, looked up, chain 1 of 2): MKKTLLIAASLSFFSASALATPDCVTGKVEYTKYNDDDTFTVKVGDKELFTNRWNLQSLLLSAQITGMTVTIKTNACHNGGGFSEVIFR
T1 sequence (P08026 whole entry, looked up, chain 2 of 2): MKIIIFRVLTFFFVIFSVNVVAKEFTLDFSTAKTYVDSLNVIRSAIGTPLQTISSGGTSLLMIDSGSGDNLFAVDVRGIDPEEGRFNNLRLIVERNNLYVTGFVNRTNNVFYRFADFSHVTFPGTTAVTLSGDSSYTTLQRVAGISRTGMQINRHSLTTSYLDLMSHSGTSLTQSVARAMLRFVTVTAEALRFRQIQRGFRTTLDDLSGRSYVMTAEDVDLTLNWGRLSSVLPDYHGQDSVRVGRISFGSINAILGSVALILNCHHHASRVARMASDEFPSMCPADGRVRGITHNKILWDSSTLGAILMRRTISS

B1: scFvStx1 (scFv, V domains shown)
VH: EVQLQQSGPELVKPGTSVKMSCKASGYTFTDYFIHWVKQSHGKSLEWIGYIYPKNDGNDYNQKFKGKATLTVDKSSSTGYMELRSLTSEDSAVYYCARSRGYYGALDYWGQGTSVTVSR
VL: DLQLTQSPATLSVNPGDSVSLSCRASQSIRNDLHWYQQKSHESPRLLIKSVSQSISGIPSRFSGSGSGTDFTLSINSVETEDFGMYFCQQSYSWPLTFGAGTK
notes: also called scFvStx1(II); new scFvStx1; source: E. coli BL21 (DE3) pLysS, periplasmic expression, purified (IMAC)
Shiga toxin 1 (Stx1) [1]
  Kd: 226 nM
Shiga toxin 1 (Stx1) [2]
  EC50: 600 nM
Stx2 toxin
  binding result: binds
